# In paper PMC9405932:
# Biological target: BCAS1-SV1 (novel splice variant of BCAS1), full length, Gal4 fusion for yeast two-hybrid (human)
# Sequence (O75363 whole entry, change not shown, the tested form may be a part, canonical isoform): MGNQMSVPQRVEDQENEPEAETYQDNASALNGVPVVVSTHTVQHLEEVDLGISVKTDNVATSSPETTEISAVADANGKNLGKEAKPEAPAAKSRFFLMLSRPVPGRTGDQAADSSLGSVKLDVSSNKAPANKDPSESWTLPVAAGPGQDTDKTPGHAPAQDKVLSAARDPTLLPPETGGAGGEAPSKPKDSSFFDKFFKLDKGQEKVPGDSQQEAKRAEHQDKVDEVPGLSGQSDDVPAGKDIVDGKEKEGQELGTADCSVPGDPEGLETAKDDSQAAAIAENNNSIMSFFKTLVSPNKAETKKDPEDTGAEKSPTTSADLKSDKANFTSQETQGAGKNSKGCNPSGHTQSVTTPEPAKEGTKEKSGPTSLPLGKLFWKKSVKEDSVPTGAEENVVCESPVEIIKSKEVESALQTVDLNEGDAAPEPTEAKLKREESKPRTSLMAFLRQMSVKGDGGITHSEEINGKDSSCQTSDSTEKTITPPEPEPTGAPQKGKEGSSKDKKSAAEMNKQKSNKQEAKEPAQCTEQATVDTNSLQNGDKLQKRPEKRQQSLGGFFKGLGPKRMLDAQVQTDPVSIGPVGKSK
substance,measurement,value
"β-arrestin 2 (ARRB2), full length, Gal4 fusion for yeast two-hybrid (from UniProt P32121-1 1-409) (natural protein)","decrease of migration of GBM8401 cells (scratch wound assay) by maackiain (MK), dose series up to 1 μM; MK is said to disrupt the pair",67%
same,"decrease of migration of M059K cells (scratch wound assay) by maackiain (MK), dose series up to 1 μM; MK is said to disrupt the pair",70%
